Assay results taken from PMC4646180.

The substances below were run against Ub-AMC (ubiquitin with 7-amino-4-methylcoumarin at its C terminus) (UniProt P0CG48).
In the case of “MHV PLP2+ D1772R (from UniProt P0C6V0 1525-1911) (enzyme)”, the Relative activity of WT, 500 nM Ub-AMC is reported as 1.1%.
For “MHV PLP2+ D1807R (from UniProt P0C6V0 1525-1911) (enzyme)”, the Relative activity of WT, 500 nM Ub-AMC was 0.5%.
With “MHV PLP2+ F1812A (from UniProt P0C6V0 1525-1911) (enzyme)” the Relative activity of WT, 500 nM Ub-AMC was 3.3%.
“MHV PLP2+ Y1824A (from UniProt P0C6V0 1525-1911) (enzyme)” showed a Relative activity of WT, 500 nM Ub-AMC of 3%.
Work on “MHV PLP2+ Y1824F (from UniProt P0C6V0 1525-1911) (enzyme)” yielded a Relative activity of WT, 500 nM Ub-AMC of 70.3%.
